Data reported in the nanobody polyreactivity screen of Harvey et al. (2022).

Test: yeast display, Sf9 membrane polyspecificity reagent, FACS + sequencing; frameworks hold sequencing errors
Procedure, shortened: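 Nanobodies from a synthetic yeast display library (Saccharomyces cerevisiae BJ5465), induced 36–48 hours with galactose, were stained 1 hour at 4 °C with 10% biotinylated, detergent-solubilized Sf9 membrane reagent, enriched on streptavidin microbeads, then FACS-sorted. Anti-HA (expression) and streptavidin (reagent binding) fluorescence set low and high (top ~1%) gates. Polyreactivity labels come from the gate of origin. Genes were colony-PCR amplified, MiSeq 2 × 250 sequenced and filtered by CDR length.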

Sequence | polyreactivity (PSR sort gate)
QVQLVESGGGLVQAGGSLRLSCAASGFTFPYYAMGWYREAPGKERELVAAISFSGGRTYYADSVKGRFTISRDNAKNTVYLQMNSLKPEDTAVYYCAAAKTYYRYNYWGQGTQVSVSS | high polyreactivity
QVQLVESGGGLVQAGGSLRLSCAASGLIFWLNAMGWYRQAPGKERELVAAISWTDGTTYYADSVKGRFTISRDNAKNTVYLQMNSLIPEDTAVYYCAAEQVTIEDGVYFDFNSWGQGTQVTVSS | low polyreactivity
QVQLVESGGGLVQAGGSLRLSCAASGSIFKRNTMGWYRQAPGKERELVAAISASGGRTYYADSVKGRFTISRDNAKNTVYLQMNSLKPEDTAVYYCNARFRIGRSELDYWGQGTQVTVSS | low polyreactivity
QVQLVESGGGLDQARGSLRLSCAASGSTFKSYVMGWYRQAPGKVRELVAAISQSGGNTNYADSVKGRFTISRDNAKNTVYLQMNSLKPEDTAVDYCAADVLGTTTTVGGFNYWGQGTQVTVSS | low polyreactivity
QVQLVESGGGVVQAGGSLRLSSAASGISFAYYAMGWYRQAPGKERELVASITNTGSTYYADSVKGRFTISRDNAKNSVYLEMTSLKPEDTAVYYCNAVLSSNTKWRYPGDDWGQGTQVTVSS | low polyreactivity
QVQLVESGGGLVQAGGSLRLSCAASGFTFFWNAMGWSRQAPGKERELVAVITFRGGDTYYADSVKGRFTISRDNAKNTVYLQMNSLKPEDTAVYYCNADWQSYGYLWHSSLYYYWGQGTQVTVSS | low polyreactivity
QVQLVESGGGLVQAGGSLRLSCAASGSTFTHYAMGWYRQAPGKERELVAAITSSGGSTYYADSVKGRFTISRDNAKNTVYLQMNSLKPEDTAVYYCAARGSYRNRYRHDYWGQGTQVTVSS | high polyreactivity
QVQLVESGGGLVQAGGSLRLSCAASGRTFFYYAMGWYRQAPGKERELVAAITTDGGTTSYADSVKGRFTISRDNAKNTVSLQMNSLKPEETAVYYCAADASYQYYPYDYWGQGTQVTVSS | low polyreactivity
QVHLVESGGGLVQAGGSLRLSSAASGFIFLQYAMGWYRQAPGKEREFVAVISRSGGGTYYADSVKGRFTISRDNAKNTVYLQMNSLKPEDTAVYYCAALGATRSRYDYWGQGTQVTVSS | high polyreactivity
QVQLVESGGGLVQAGGSLRLTCAASGFTFPSYPMVWYRQAPGKERELVAAITRSGVRTYYADSVKGRFTISRDNAKNTVYFQMNSLKPEDTAVYYCAAVYPRQVSQVWRDDFWGQGTQVTVSS | high polyreactivity
QVQLVESGGGLVQAGGRLRLSCAASGGIFESYAMGWYRQAPGKERELVATITGSGGNTYYADSVKGRFTISRDNAKNTVYLQMNSLKPEDTAVYYCAADTYITPHYLPLLYFLMEYWGQGTQVTVSS | low polyreactivity
QVQLVESGGGLVQAGGSLSLSCAASGRIFGRYAMGWYRQAPGTERVLVAVISSGGSKYYADSVKGRFTISRDNAKNTVYLQMNSLKPEDTAVYYCAAVNRRGYDYWGQGTQVTVSS | low polyreactivity
QVQLVESGGGLVQAGGSLRLSCAASGRTFSNYMGWYRQAPGKERELVAAISWRGGTTYYADSVKGRFTISRDNAKNTVYLQMNSLKPEDTAVYYCNADVVRYRHWHRGDYWGQGTQVTVSS | low polyreactivity
QVQLVESGGGLVQAGGSLRLSCAASGSTFYTNPMGWYRQAPGKERELVAAISGSGGSTYYADSVKGRFTISRDNAKNTVYLQMNSLKPEYTAVYYCAARSRYYDTRFDYWGQGTQVTVSS | low polyreactivity
QVQLVESGGGLVQAGGSLRLSCAASGSTFGPNAMGWYRQAPGKERELVATISFRGGTTYYADSVKGRFTISRDHAKNTVYLQMNSLKPEDTAVYYCAVKVGYVRLLYHYYYWGQGTQGTVSS | high polyreactivity
QVQLVESAGGLVQAGGSLRLSCDASGSILDSNAMGWYRQAHGKERELVAAITSGGSTYYADSVKGRFTISRDNAKNTVYLQMNSLKPEDTAVYYCAAVDIYKYYQYYAFPYYRYDSWGQGTQVTVSS | low polyreactivity
QVQLQESGGGLVQAGGSLRLSCAASGTIFRISDMGSYRQAPGKDLEFVAAITYGANTYYADSGKGRFTISRDNAKNTVYLQMNSLKPEDTAVYYCAVPPVKETILDYWGQGTQVTVSS | low polyreactivity
QVQLVESGGGLVQAGGSLRLSCAASGFTFYRYAMGWYRHAPGKERELVAAITRSGSRTYYADSVKGRFTISRDNAKNTVYLQMNSLKPEDTAVYYFNTDGGDHPTARYGYWGQVTQVTVSS | high polyreactivity
QFHLVESVGGLFQAGGSLRLSSAASGRNFSIYAMGWYRQAPGKERELVAAISWSGGRTYYADSVKGRFTISRDTAKNTVYLQMNSLKPEDTAVYYCNAENGWADYYRSDYWGQGTQVTVSS | high polyreactivity
QVQLVESGGGLFQAGGSLRLSCAASGSTFYIYAMGWYRQAPGKEREFFAAIDFSGSSTYADSEKGRFTISRDNAKNTVYVQMNSLKPEDTAVYYCAAYQIYQYDGPYDYWGQGTQVTVSS | low polyreactivity
QVQLVESGGGLVQAGGSLRLSCAASGRFFSNNAMGWYRPAPGKERELVAAIDSSGDSTNYADSVKGRFTISRDIAKNTVYLQMNSLKPEDTAVYYCNALQRGRRVWQYLYGYWGQGTQVNVSS | high polyreactivity
QVQLVESGGGLVQAGGSLRLSCAASGSTFDTNAMGWYRQAPGKERELVAAISWSRDRTYYADSVKGRFTISRDNAKNTVYLQMNSLNPEDTAVYYCNAYLSFRRQYGYWGQGTQGTVSS | high polyreactivity
